{"source": "patent US20140087995A1", "about": "(published 2014)", "binders": {"B1": {"name": "N^α1-[(4S)-4-carboxy-4-(19-carboxynonadecanoylamino)butanoyl]-[Arg17,Pro21,Pro27,Pro34,Glu35]-h-amylin (peptide)", "peptide": "{C20 diacid-γGlu}-KCNTATCATQRLANFLRHSSPNFGAIPSSTNVGPETY-NH2", "modifications": "disulfide 2-7", "SMILES": "CC[C@H](C)[C@H](NC(=O)[C@H](C)NC(=O)CNC(=O)[C@H](Cc1ccccc1)NC(=O)[C@H](CC(N)=O)NC(=O)[C@@H]1CCCN1C(=O)[C@H](CO)NC(=O)[C@H](CO)NC(=O)[C@H](Cc1c[nH]cn1)NC(=O)[C@H](CCCNC(=N)N)NC(=O)[C@H](CC(C)C)NC(=O)[C@H](Cc1ccccc1)NC(=O)[C@H](CC(N)=O)NC(=O)[C@H](C)NC(=O)[C@H](CC(C)C)NC(=O)[C@H](CCCNC(=N)N)NC(=O)[C@H](CCC(N)=O)NC(=O)[C@@H](NC(=O)[C@H](C)NC(=O)[C@@H]1CSSC[C@H](NC(=O)[C@H](CCCCN)NC(=O)CC[C@H](NC(=O)CCCCCCCCCCCCCCCCCCC(=O)O)C(=O)O)C(=O)N[C@@H](CC(N)=O)C(=O)N[C@@H]([C@@H](C)O)C(=O)N[C@@H](C)C(=O)N[C@@H]([C@@H](C)O)C(=O)N1)[C@@H](C)O)C(=O)N1CCC[C@H]1C(=O)N[C@@H](CO)C(=O)N[C@@H](CO)C(=O)N[C@H](C(=O)N[C@@H](CC(N)=O)C(=O)N[C@H](C(=O)NCC(=O)N1CCC[C@H]1C(=O)N[C@@H](CCC(=O)O)C(=O)N[C@H](C(=O)N[C@@H](Cc1ccc(O)cc1)C(N)=O)[C@@H](C)O)C(C)C)[C@@H](C)O", "notes": "Derivative of human amylin; also called compound 29"}, "B2": {"name": "N^α1-[(4S)-4-carboxy-4-(19-carboxynonadecanoylamino)butanoyl]-[Glu14,Arg17,Pro21,Pro25,Pro28,Pro29,Pro37]-h-amylin (peptide)", "peptide": "{C20 diacid-γGlu}-KCNTATCATQRLAEFLRHSSPNFGPILPPTNVGSNTP-NH2", "modifications": "disulfide 2-7", "SMILES": "CC[C@H](C)[C@H](NC(=O)[C@@H]1CCCN1C(=O)CNC(=O)[C@H](Cc1ccccc1)NC(=O)[C@H](CC(N)=O)NC(=O)[C@@H]1CCCN1C(=O)[C@H](CO)NC(=O)[C@H](CO)NC(=O)[C@H](Cc1c[nH]cn1)NC(=O)[C@H](CCCNC(=N)N)NC(=O)[C@H](CC(C)C)NC(=O)[C@H](Cc1ccccc1)NC(=O)[C@H](CCC(=O)O)NC(=O)[C@H](C)NC(=O)[C@H](CC(C)C)NC(=O)[C@H](CCCNC(=N)N)NC(=O)[C@H](CCC(N)=O)NC(=O)[C@@H](NC(=O)[C@H](C)NC(=O)[C@@H]1CSSC[C@H](NC(=O)[C@H](CCCCN)NC(=O)CC[C@H](NC(=O)CCCCCCCCCCCCCCCCCCC(=O)O)C(=O)O)C(=O)N[C@@H](CC(N)=O)C(=O)N[C@@H]([C@@H](C)O)C(=O)N[C@@H](C)C(=O)N[C@@H]([C@@H](C)O)C(=O)N1)[C@@H](C)O)C(=O)N[C@@H](CC(C)C)C(=O)N1CCC[C@H]1C(=O)N1CCC[C@H]1C(=O)N[C@H](C(=O)N[C@@H](CC(N)=O)C(=O)N[C@H](C(=O)NCC(=O)N[C@@H](CO)C(=O)N[C@@H](CC(N)=O)C(=O)N[C@H](C(=O)N1CCC[C@H]1C(N)=O)[C@@H](C)O)C(C)C)[C@@H](C)O", "notes": "Derivative of human amylin; also called compound 4"}, "B3": {"name": "N^α1-[(4S)-4-carboxy-4-(19-carboxynonadecanoylamino)butanoyl]-[Glu14,Arg17,Pro21,Pro25,Pro28,Pro29]-h-amylin (peptide)", "peptide": "{C20 diacid-γGlu}-KCNTATCATQRLAEFLRHSSPNFGPILPPTNVGSNTY-NH2", "modifications": "disulfide 2-7", "SMILES": "CC[C@H](C)[C@H](NC(=O)[C@@H]1CCCN1C(=O)CNC(=O)[C@H](Cc1ccccc1)NC(=O)[C@H](CC(N)=O)NC(=O)[C@@H]1CCCN1C(=O)[C@H](CO)NC(=O)[C@H](CO)NC(=O)[C@H](Cc1c[nH]cn1)NC(=O)[C@H](CCCNC(=N)N)NC(=O)[C@H](CC(C)C)NC(=O)[C@H](Cc1ccccc1)NC(=O)[C@H](CCC(=O)O)NC(=O)[C@H](C)NC(=O)[C@H](CC(C)C)NC(=O)[C@H](CCCNC(=N)N)NC(=O)[C@H](CCC(N)=O)NC(=O)[C@@H](NC(=O)[C@H](C)NC(=O)[C@@H]1CSSC[C@H](NC(=O)[C@H](CCCCN)NC(=O)CC[C@H](NC(=O)CCCCCCCCCCCCCCCCCCC(=O)O)C(=O)O)C(=O)N[C@@H](CC(N)=O)C(=O)N[C@@H]([C@@H](C)O)C(=O)N[C@@H](C)C(=O)N[C@@H]([C@@H](C)O)C(=O)N1)[C@@H](C)O)C(=O)N[C@@H](CC(C)C)C(=O)N1CCC[C@H]1C(=O)N1CCC[C@H]1C(=O)N[C@H](C(=O)N[C@@H](CC(N)=O)C(=O)N[C@H](C(=O)NCC(=O)N[C@@H](CO)C(=O)N[C@@H](CC(N)=O)C(=O)N[C@H](C(=O)N[C@@H](Cc1ccc(O)cc1)C(N)=O)[C@@H](C)O)C(C)C)[C@@H](C)O", "notes": "Derivative of human amylin; also called compound 6"}, "B4": {"name": "N^α1-[(4S)-4-carboxy-4-(19-carboxynonadecanoylamino)butanoyl]-[Glu14,Arg17,Pro21,Pro26,Pro37]-h-amylin (peptide)", "peptide": "{C20 diacid-γGlu}-KCNTATCATQRLAEFLRHSSPNFGAPLSSTNVGSNTP-NH2", "modifications": "disulfide 2-7", "SMILES": "CC(C)C[C@H](NC(=O)[C@H](CCCNC(=N)N)NC(=O)[C@H](CCC(N)=O)NC(=O)[C@@H](NC(=O)[C@H](C)NC(=O)[C@@H]1CSSC[C@H](NC(=O)[C@H](CCCCN)NC(=O)CC[C@H](NC(=O)CCCCCCCCCCCCCCCCCCC(=O)O)C(=O)O)C(=O)N[C@@H](CC(N)=O)C(=O)N[C@@H]([C@@H](C)O)C(=O)N[C@@H](C)C(=O)N[C@@H]([C@@H](C)O)C(=O)N1)[C@@H](C)O)C(=O)N[C@@H](C)C(=O)N[C@@H](CCC(=O)O)C(=O)N[C@@H](Cc1ccccc1)C(=O)N[C@@H](CC(C)C)C(=O)N[C@@H](CCCNC(=N)N)C(=O)N[C@@H](Cc1c[nH]cn1)C(=O)N[C@@H](CO)C(=O)N[C@@H](CO)C(=O)N1CCC[C@H]1C(=O)N[C@@H](CC(N)=O)C(=O)N[C@@H](Cc1ccccc1)C(=O)NCC(=O)N[C@@H](C)C(=O)N1CCC[C@H]1C(=O)N[C@@H](CC(C)C)C(=O)N[C@@H](CO)C(=O)N[C@@H](CO)C(=O)N[C@H](C(=O)N[C@@H](CC(N)=O)C(=O)N[C@H](C(=O)NCC(=O)N[C@@H](CO)C(=O)N[C@@H](CC(N)=O)C(=O)N[C@H](C(=O)N1CCC[C@H]1C(N)=O)[C@@H](C)O)C(C)C)[C@@H](C)O", "notes": "Derivative of human amylin; also called compound 5"}, "B5": {"name": "N^α1-[(4S)-4-carboxy-4-(19-carboxynonadecanoylamino)butanoyl]-[Glu14,Arg17,Pro21,Pro26]-h-amylin (peptide)", "peptide": "{C20 diacid-γGlu}-KCNTATCATQRLAEFLRHSSPNFGAPLSSTNVGSNTY-NH2", "modifications": "disulfide 2-7", "SMILES": "CC(C)C[C@H](NC(=O)[C@H](CCCNC(=N)N)NC(=O)[C@H](CCC(N)=O)NC(=O)[C@@H](NC(=O)[C@H](C)NC(=O)[C@@H]1CSSC[C@H](NC(=O)[C@H](CCCCN)NC(=O)CC[C@H](NC(=O)CCCCCCCCCCCCCCCCCCC(=O)O)C(=O)O)C(=O)N[C@@H](CC(N)=O)C(=O)N[C@@H]([C@@H](C)O)C(=O)N[C@@H](C)C(=O)N[C@@H]([C@@H](C)O)C(=O)N1)[C@@H](C)O)C(=O)N[C@@H](C)C(=O)N[C@@H](CCC(=O)O)C(=O)N[C@@H](Cc1ccccc1)C(=O)N[C@@H](CC(C)C)C(=O)N[C@@H](CCCNC(=N)N)C(=O)N[C@@H](Cc1c[nH]cn1)C(=O)N[C@@H](CO)C(=O)N[C@@H](CO)C(=O)N1CCC[C@H]1C(=O)N[C@@H](CC(N)=O)C(=O)N[C@@H](Cc1ccccc1)C(=O)NCC(=O)N[C@@H](C)C(=O)N1CCC[C@H]1C(=O)N[C@@H](CC(C)C)C(=O)N[C@@H](CO)C(=O)N[C@@H](CO)C(=O)N[C@H](C(=O)N[C@@H](CC(N)=O)C(=O)N[C@H](C(=O)NCC(=O)N[C@@H](CO)C(=O)N[C@@H](CC(N)=O)C(=O)N[C@H](C(=O)N[C@@H](Cc1ccc(O)cc1)C(N)=O)[C@@H](C)O)C(C)C)[C@@H](C)O", "notes": "Derivative of human amylin; also called compound 7"}}, "note": "Numbered stars: 1 amine (or outer) side, 2 acyl side, 3 side chain; on linkers, the order of the positions; unused ones are H or OH. Bridge positions count the residues as written; N and C are the ends. * marks the point of attachment. C20 diacid = O=C(O)CCCCCCCCCCCCCCCCCCC(=O)*; γGlu = O=C(O)[C@H](CCC(=O)[*:2])N[*:1]", "data": [{"target": "T1, rat calcitonin receptor (rat, UniProt P32214 25-516)", "T1 construct": "whole, on cells; Used as membranes prepared from the transfected cells; also called rCTR; rat calcitonin (a) receptor", "T1 sequence (looked up)": "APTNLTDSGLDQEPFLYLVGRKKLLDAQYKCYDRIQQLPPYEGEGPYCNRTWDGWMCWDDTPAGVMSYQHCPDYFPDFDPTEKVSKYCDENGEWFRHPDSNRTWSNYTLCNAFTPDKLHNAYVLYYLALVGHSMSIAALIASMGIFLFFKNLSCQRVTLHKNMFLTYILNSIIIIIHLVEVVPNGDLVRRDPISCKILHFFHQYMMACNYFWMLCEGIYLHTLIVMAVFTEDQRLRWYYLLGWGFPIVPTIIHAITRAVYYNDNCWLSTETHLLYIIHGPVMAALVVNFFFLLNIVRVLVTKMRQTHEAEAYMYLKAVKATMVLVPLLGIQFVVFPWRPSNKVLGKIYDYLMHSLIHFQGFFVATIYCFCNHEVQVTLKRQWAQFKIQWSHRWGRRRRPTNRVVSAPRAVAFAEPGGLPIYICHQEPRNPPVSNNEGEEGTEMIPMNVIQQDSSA", "experiment": "ratio IC50 rat calcitonin receptor / IC50 rat amylin receptor (Assays VIII and VI)", "values": [{"binder": "B1", "Ratio rCT/rAmylin binding": 67}, {"binder": "B2", "Ratio rCT/rAmylin binding": 3.1}, {"binder": "B3", "Ratio rCT/rAmylin binding": 21.7}, {"binder": "B4", "Ratio rCT/rAmylin binding": 3.6}, {"binder": "B5", "Ratio rCT/rAmylin binding": 42}]}, {"target": "T2, human calcitonin receptor (human, UniProt P30988 25-474)", "T2 construct": "whole, on cells; Used as membranes prepared from the transfected cells (Assay VII); also called hCTR; hCT", "T2 sequence (looked up)": "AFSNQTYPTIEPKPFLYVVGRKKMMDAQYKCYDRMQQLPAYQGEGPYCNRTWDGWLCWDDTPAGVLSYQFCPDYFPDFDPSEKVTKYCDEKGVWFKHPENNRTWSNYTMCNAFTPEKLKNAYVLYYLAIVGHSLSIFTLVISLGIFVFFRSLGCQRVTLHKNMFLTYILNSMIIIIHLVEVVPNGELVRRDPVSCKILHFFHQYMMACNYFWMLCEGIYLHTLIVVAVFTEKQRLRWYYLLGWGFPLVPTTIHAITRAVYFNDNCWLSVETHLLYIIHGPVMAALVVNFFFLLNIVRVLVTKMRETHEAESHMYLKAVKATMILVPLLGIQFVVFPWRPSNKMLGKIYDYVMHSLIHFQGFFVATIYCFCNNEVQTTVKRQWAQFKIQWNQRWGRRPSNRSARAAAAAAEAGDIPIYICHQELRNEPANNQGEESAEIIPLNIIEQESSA", "experiment": "ratio IC50 human calcitonin receptor / IC50 human amylin receptor (Assays VII and V)", "outline": "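Competition binding by SPA with cell membranes (35 ng/μL) and SPA beads in 50 mM Hepes pH 7.4 with 1 mM CaCl2, 5 mM MgCl2, 0.1% OA and 0.02% Tween20. Incubated 120 min at 25 °C with shaking, then counted.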", "values": [{"binder": "B1", "Ratio hCT/hAmylin binding": 13.9}, {"binder": "B2", "Ratio hCT/hAmylin binding": 2.1}, {"binder": "B3", "Ratio hCT/hAmylin binding": 20}, {"binder": "B4", "Ratio hCT/hAmylin binding": 1.4}, {"binder": "B5", "Ratio hCT/hAmylin binding": 16.5}]}, {"target": "T1, rat calcitonin receptor", "experiment": "SPA competition with 125I-calcitonin, membranes of BHK cells with rat calcitonin receptor (Assay VIII)", "units": {"IC50": "nM"}, "values": [{"binder": "B1", "IC50": 21.6}, {"binder": "B2", "IC50": 4.05}, {"binder": "B3", "IC50": 51.5}, {"binder": "B4", "IC50": 4.65}, {"binder": "B5", "IC50": 47.2}]}, {"target": "T3, rat amylin receptor (rat calcitonin receptor + rat RAMP 3) (rat, UniProt P32214 25-516; Q9JJ73 23-147)", "T3 construct": "whole, on cells; Used as membranes prepared from the transfected cells; also called rAmylin-R; rat amylin 3(a) receptor", "T3 sequence (looked up) 1": "T1 sequence (looked up)", "T3 sequence (looked up) 2": "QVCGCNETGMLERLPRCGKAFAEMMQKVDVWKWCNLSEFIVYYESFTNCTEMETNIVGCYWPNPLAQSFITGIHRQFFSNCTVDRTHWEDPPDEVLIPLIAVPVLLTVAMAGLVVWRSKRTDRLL", "experiment": "SPA competition with 125I-rat amylin, membranes of BHK cells with rat calcitonin receptor + rat RAMP3 (Assay VI)", "units": {"IC50": "nM"}, "values": [{"binder": "B1", "IC50": 0.322}, {"binder": "B2", "IC50": 1.3}, {"binder": "B3", "IC50": 2.37}, {"binder": "B4", "IC50": 1.3}, {"binder": "B5", "IC50": 1.12}]}]}
